Source: patent US20190016826A1 (Genentech, published 2019)

What was measured:
[1] = molecular target: Full length human HtrA1 (HuHtrA1) (Q23-P480), N-terminal His6 tag (human, UniProt Q92743 23-480); assay: cell-based or functional assay
N224A = molecular target: T1, N224A; assay: ELISA on plate-coated HuHtrA1_PD mutants (Example 7); column head on the sheet reads YW505.94 Fab, legend paragraph 70 says IgG94
T1 construct: also called HuHtrA1_PD(N224A)
Experimental: (§1) The mutants were expressed in E. coli and the trimers purified by size exclusion chromatography as described in Example 2. Binding was determined using an ELISA assay, which was conducted using a MAXISORP™ microtiter plate coated with HuHtrA1_PD mutants at 2 μg/ml in PBS for 1 h, followed by blocking with PBST buffer (0.5% BSA and 0.05% Tween 20 in PBS) for 1 h at room temperature. […] The plates were washed with PBT buffer (0.05% Tween 20 in PBS), and HRP-conjugated goat anti-human IgG (H+L) (Invitrogen) was added (1:5000 in PBST buffer) and incubated for 1 h. The plates were washed with PBT buffer and developed by adding tetramethylbenzidine substrate (Kirkegaard and Perry Laboratories, Gaithersburg, Md.). The absorbance at 450 nm was plotted as a function of antibody concentration in solution to determine EC₅₀ values.
(§2) In trypsin-like serine proteases these loops are known to be part of the specificity determining region that interacts with substrates.

E239A = molecular target: T2, E239A; assay: as above
T2 construct: also called HuHtrA1_PD(E239A)
Experimental: as §1, §2

K241A = molecular target: T3, K241A; assay: as above
T3 construct: also called HuHtrA1_PD(K241A)
Experimental: as §1, §2

HuHtrA1_PD(V201A) = molecular target: T4, HuHtrA1_PD(V201A) (human, UniProt F1N152 168-386 (bovine entry)); assay: as above
T4 construct: Alanine mutant of HuHtrA1_PD; also called HuHtrA1 mutant V201A; not shown: thrombin cleavage site
T4 chain: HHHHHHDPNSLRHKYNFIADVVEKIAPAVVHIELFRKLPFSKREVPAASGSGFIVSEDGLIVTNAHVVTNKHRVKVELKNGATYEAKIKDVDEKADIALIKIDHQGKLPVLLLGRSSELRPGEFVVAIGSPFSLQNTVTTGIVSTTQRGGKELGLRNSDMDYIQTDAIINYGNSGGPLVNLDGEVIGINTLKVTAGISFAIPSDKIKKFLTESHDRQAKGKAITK
Experimental: as §1, §2

HuHtrA1_PD(H220A) = molecular target: T5, HuHtrA1_PD(H220A) (human, UniProt F1N152 168-386 (bovine entry)); assay: as above
T5 construct: Alanine mutant of HuHtrA1_PD; also called HuHtrA1 mutant H220A; not shown: thrombin cleavage site
T5 chain: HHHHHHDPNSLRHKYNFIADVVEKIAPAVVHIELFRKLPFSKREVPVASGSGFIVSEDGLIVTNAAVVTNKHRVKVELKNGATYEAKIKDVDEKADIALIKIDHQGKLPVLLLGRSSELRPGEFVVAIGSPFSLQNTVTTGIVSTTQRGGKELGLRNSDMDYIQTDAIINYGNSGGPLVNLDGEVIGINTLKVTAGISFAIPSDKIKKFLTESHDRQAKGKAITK
Experimental: as §1, §2

HuHtrA1_PD(T223A) = molecular target: T6, HuHtrA1_PD(T223A) (human, UniProt F1N152 168-386 (bovine entry)); assay: as above
T6 construct: Alanine mutant of HuHtrA1_PD; also called HuHtrA1 mutant T223A; not shown: thrombin cleavage site
T6 chain: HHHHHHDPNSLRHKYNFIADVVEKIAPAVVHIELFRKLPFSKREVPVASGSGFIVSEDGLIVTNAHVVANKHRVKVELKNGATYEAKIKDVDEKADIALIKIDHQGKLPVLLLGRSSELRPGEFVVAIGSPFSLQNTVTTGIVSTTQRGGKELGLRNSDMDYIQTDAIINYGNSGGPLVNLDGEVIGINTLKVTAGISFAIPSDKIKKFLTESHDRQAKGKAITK
Experimental: as §1, §2

HuHtrA1_PD(K225A) = molecular target: T7, HuHtrA1_PD(K225A) (human, UniProt F1N152 168-386 (bovine entry)); assay: as above
T7 construct: Alanine mutant of HuHtrA1_PD; also called HuHtrA1 mutant K225A; not shown: thrombin cleavage site
T7 chain: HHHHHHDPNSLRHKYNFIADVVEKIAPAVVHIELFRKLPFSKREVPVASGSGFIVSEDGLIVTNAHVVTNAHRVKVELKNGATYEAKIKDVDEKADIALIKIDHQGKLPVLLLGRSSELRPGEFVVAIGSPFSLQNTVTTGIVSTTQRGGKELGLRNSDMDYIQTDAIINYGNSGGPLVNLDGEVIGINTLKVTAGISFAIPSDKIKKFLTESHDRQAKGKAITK
Experimental: as §1, §2

HuHtrA1_PD(E247A) = molecular target: T8, HuHtrA1_PD(E247A) (human, UniProt F1N152 168-386 (bovine entry)); assay: as above
T8 construct: Alanine mutant of HuHtrA1_PD; also called HuHtrA1 mutant E247A; not shown: thrombin cleavage site
T8 chain: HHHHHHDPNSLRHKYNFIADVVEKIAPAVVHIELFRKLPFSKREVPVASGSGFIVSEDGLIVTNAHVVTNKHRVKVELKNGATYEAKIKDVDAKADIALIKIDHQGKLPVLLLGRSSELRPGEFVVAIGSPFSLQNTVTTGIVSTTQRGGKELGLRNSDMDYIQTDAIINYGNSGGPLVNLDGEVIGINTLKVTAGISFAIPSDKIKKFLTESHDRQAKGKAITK
Experimental: as §1, §2

Chain of Full length human HtrA1 (HuHtrA1) (Q23-P480), N-terminal His6 tag (Q92743 other isoform, or with tags, fused parts or gaps): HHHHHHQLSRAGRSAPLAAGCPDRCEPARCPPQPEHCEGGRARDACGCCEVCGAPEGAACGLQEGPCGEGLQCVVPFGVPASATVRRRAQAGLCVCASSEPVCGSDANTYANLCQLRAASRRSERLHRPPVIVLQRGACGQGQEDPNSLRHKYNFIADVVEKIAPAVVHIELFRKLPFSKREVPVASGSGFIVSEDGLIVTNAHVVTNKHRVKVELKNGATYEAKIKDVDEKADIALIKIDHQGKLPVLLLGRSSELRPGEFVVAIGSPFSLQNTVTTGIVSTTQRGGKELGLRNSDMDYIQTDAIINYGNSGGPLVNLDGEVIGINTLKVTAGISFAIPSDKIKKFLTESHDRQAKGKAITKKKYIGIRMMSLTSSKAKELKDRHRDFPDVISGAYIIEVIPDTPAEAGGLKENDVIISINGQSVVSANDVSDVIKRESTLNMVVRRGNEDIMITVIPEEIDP

B1: Fab94 (anti-HtrA1 antibody YW505.94, Fab format) (Fab, V domains shown)
VH: EVQLVESGGGLVQPGGSLRLSCAASGFNISGYYIHWVRQAPGKGLEWVGWIDPYGGDTNYADSVKGRFTISADTSKNTAYLQMNSLRAEDTAVYYCARGTFLTSWGHYFDYWGQGT
VL: DIQMTQSPSSLSASVGDRVTITCRASQDVSTAVAWYQQKPGKAPKLLIYSASFLYSGVPSRFSGSGSGTDFTLTISSLQPEDFATYYCQQSYTTPPTFGQGTKVEIKR
With B1 the “IC50, inhibition of H2-Opt peptide hydrolysis (FRET assay)” value [1] was 29.1 nM, the EC50 (N224A) was 135 nM and the “Relative to WT EC50 Fold Decrease” value (N224A) was 24 fold. The EC50 (E239A) was 5.4 nM, the “Relative to WT EC50 Fold Decrease” value (E239A) was 0.9 fold and the EC50 (K241A) was 23 nM. The “Relative to WT EC50 Fold Decrease” value (K241A) was 4.1 fold, the EC50 (HuHtrA1_PD(V201A)) was 112 nM and the “Relative to WT EC50 Fold Decrease” value (HuHtrA1_PD(V201A)) was 20 fold. For the same binder, the EC50 (HuHtrA1_PD(H220A)) was 32 nM, the “Relative to WT EC50 Fold Decrease” value (HuHtrA1_PD(H220A)) was 5.7 fold and the EC50 (HuHtrA1_PD(T223A)) was 62.9 nM. For the same binder, the “Relative to WT EC50 Fold Decrease” value (HuHtrA1_PD(T223A)) was 11.2 fold, the EC50 (HuHtrA1_PD(K225A)) was 52.2 nM and the “Relative to WT EC50 Fold Decrease” value (HuHtrA1_PD(K225A)) was 9.3 fold. The EC50 (HuHtrA1_PD(E247A)) was 41.7 nM and the “Relative to WT EC50 Fold Decrease” value (HuHtrA1_PD(E247A)) was 7.4 fold.
